Biological target: the molecule itself
Test: negative stain transmission electron microscopy; purified recombinant Snf7 protein alone; protofilament assembly looked for

Protein | binding result
Snf7^Q90L (natural protein, Saccharomyces cerevisiae, UniProt P39929 1-240, looked up, Snf7/Vps32, Saccharomyces cerevisiae, with the point mutation Q90L found in the vps20Δ suppressor screen; source: recombinant, purified as described (Buchkovich et al., 2013; Henne et al., 2012; Tang et al., 2015)) MWSSLFGWTSSNAKNKESPTKAIVRLREHINLLSKKQSHLRTQITNQENEARIFLTKGNKVMAKNALKKKKTIEQLLSKVEGTMESMEQLLFSIESANLNLETMRAMQEGAKAMKTIHSGLDIDKVDETMDEIREQVELGDEISDAISRPLITGANEVDEDELDEELDMLAQENANQETSKIVNNNVNAAPISENKVSLPSVPSNKIKQSENSVKDGEEEEDEEDEDEKALRELQAEMGL | binds
Snf7^1-225 (α6 truncated Snf7) (domain or fragment, Saccharomyces cerevisiae, UniProt P39929 1-225, looked up, Snf7/Vps32, Saccharomyces cerevisiae, residues 1-225, lacks the C-terminal α6 helix; source: recombinant, purified as described (Buchkovich et al., 2013; Henne et al., 2012; Tang et al., 2015)) MWSSLFGWTSSNAKNKESPTKAIVRLREHINLLSKKQSHLRTQITNQENEARIFLTKGNKVMAKNALKKKKTIEQLLSKVEGTMESMEQQLFSIESANLNLETMRAMQEGAKAMKTIHSGLDIDKVDETMDEIREQVELGDEISDAISRPLITGANEVDEDELDEELDMLAQENANQETSKIVNNNVNAAPISENKVSLPSVPSNKIKQSENSVKDGEEEEDEED | binds
